From the RNAGym collection of RNA variant scans (doi:10.1021/acssynbio.7b00057)

B1: Pistol ribozyme (parent)
chain: GGGUCGUUGUUCCAUAAUCGCGUGGAUAUGGCACGCAAGUUUCUACCGGGCACCGUAAAUGUCCGACUGGAGCCGUUCGGGCGGCUAUAAACAGACCUCAGGCCCGAAGCGUGGCGGCACCUGCCGCCGGUGGUAAAAAAGAUCGGAAGAGCACACGUCU

Variants of: B1
Assay: aptazyme ON/OFF ratio, guanine; higher = stronger switching; co-transcriptional cleavage with and without guanine

Aptazyme ON/OFF ratio, 0.988:
U7A U8C G9C U10C U11C C12U C13U

Aptazyme ON/OFF ratio, 1.08:
U7A U8C G9A U11C C13G
U7A U8C G9C
U7A U8C G9C U10C U11A C13G
U7A U8C G9C U10G U11C C12A C13G
U7A U8C G9C U10C C12G C13U
U7A U8C G9C U10A U11A C12G C13G
U7A U8C G9C U10C U11G C12G C13G
U7A U8C G9C U10C U11G C12G C13U
U7A U8C G9C U10A C12A C13G
U7A U8C G9C U10C U11G C12G
U7A U8C G9C C12U C13A

Aptazyme ON/OFF ratio, 0.989:
U7A U8C G9C U10C U11C

Aptazyme ON/OFF ratio, 1.37:
U7A U8C G9A U10G
U7A U8C G9A U10C U11G C13G

Aptazyme ON/OFF ratio, 1.24:
U7A U8C G9A U10G C12A C13A
U7A U8C G9A U11C C12G

Aptazyme ON/OFF ratio, 1.22:
U7A U8C G9C U10A U11C C12U C13U

Aptazyme ON/OFF ratio, 1.2:
U7A U8C G9A U10G C12G C13G
U7A U8C G9A U10G U11C C12U C13G
U7A U8C G9A U10G C13G
U7A U8C G9A U10G C12A C13G

Aptazyme ON/OFF ratio, 1.28:
U7A U8C G9A U11G

Aptazyme ON/OFF ratio, 1.23:
U7A U8C G9A U10C U11G C12U
U7A U8C G9A U10G C12U C13A
U7A U8C G9A U10G U11C C12A C13U

Aptazyme ON/OFF ratio, 1.17:
U7A U8C G9A U10G C13A
U7A U8C G9C U10A C12G C13U

Aptazyme ON/OFF ratio, 1.29:
U7A U8C G9A U10G U11G C12U C13A

Aptazyme ON/OFF ratio, 1.03:
U7A U8C G9C U10C U11C C13A
U7A U8C G9A U10C U11C C12U C13G
U7A U8C G9C U10C C12A C13A
U7A U8C G9C U10G U11A C12A C13A
U7A U8C G9C U10C U11G
U7A U8C G9C U10C U11A
U7A U8C G9C U10C U11C C12G

Aptazyme ON/OFF ratio, 1.13:
U7A U8C G9C U10A U11A C12G
U7A U8C G9C U10A U11G C12U C13A
U7A U8C G9C U10A U11A C13U
U7A U8C G9C U10C C12A C13G
U7A U8C G9C U10A U11C C12U
U7A U8C G9C U10C U11G C12A
U7A U8C G9C U10G C12G C13U

Aptazyme ON/OFF ratio, 1.1:
U7A U8C G9A U11C C13U
U7A U8C G9C U10A C12G C13A
U7A U8C G9C U10G U11C
U7A U8C G9C U10A U11C C12A
U7A U8C G9C U10G U11C C13U
U7A U8C G9C U10G U11C C12A

Aptazyme ON/OFF ratio, 1.11:
U7A U8C G9A U10G U11A C12G C13A
U7A U8C G9C U10A C12U
U7A U8C G9A U10G U11G C12A
U7A U8C G9C U10C U11G C12A C13U
U7A U8C G9C U10G C12G C13G
U7A U8C G9A U10G U11A C12U C13U
U7A U8C G9C U10C U11G C12U C13G

Aptazyme ON/OFF ratio, 1.19:
U7A U8C G9A U10G C12A C13U
U7A U8C G9A U11G C12G C13A
U7A U8C G9A U10G U11A C12U C13A

Aptazyme ON/OFF ratio, 1.44:
U7A U8C G9A U10G U11G C12G

Aptazyme ON/OFF ratio, 1.09:
U7A U8C G9C U10A C13A
U7A U8C G9C C12G
U7A U8C G9A U10C U11G C12A
U7A U8C G9A U10G C13U
U7A U8C G9C U10G U11C C12A C13U
U7A U8C G9A U10G U11G C12G C13G
U7A U8C G9C U10A C12A
U7A U8C G9A U10G U11C C12G C13G
U7A U8C G9C U10A C12A C13U
U7A U8C G9C U10G U11C C12U
U7A U8C G9C U10C U11G C12U C13U
U7A U8C G9C U10C U11G C12U C13A

Aptazyme ON/OFF ratio, 1.25:
U7A U8C G9A U11A
U7A U8C G9A U10G U11C C12A C13G

Aptazyme ON/OFF ratio, 1.26:
U7A U8C G9C U10A U11C C12U C13G
U7A U8C G9C U10A U11C C12G

Aptazyme ON/OFF ratio, 1.21:
U7A U8C G9C U10A C12G
U7A U8C G9A U10G U11C C12G C13A
U7A U8C G9A U11C C12A
U7A U8C G9C U10G U11C C13A
U7A U8C G9C U10G U11C C12G

Aptazyme ON/OFF ratio, 1.27:
U7A U8C G9A U10G C12G C13A
U7A U8C G9A U10C U11G C12G

Aptazyme ON/OFF ratio, 1.46:
U7A U8C G9A U10C U11G C13U
U7A U8C G9C U10A U11C C13G

Aptazyme ON/OFF ratio, 1:
U7A U8C G9C U10A C12A C13A

Aptazyme ON/OFF ratio, 1.39:
U7A U8C G9A U10G U11G C12U
U7A U8C G9A U10G C12U C13U

Aptazyme ON/OFF ratio, 1.04:
U7A U8C G9C U10C U11G C13U
U7A U8C G9C U10C U11A C13U
U7A U8C G9A U10C U11C C12U C13U
U7A U8C G9A U11C
U7A U8C G9C U10C C12G C13A
U7A U8C G9C U10G U11A
U7A U8C G9A U10C U11C C12A C13U
U7A U8C G9A U10G U11A C13U
U7A U8C G9A U10G U11A C13A

Aptazyme ON/OFF ratio, 1.15:
U7A U8C G9C U10A U11C C12A C13A
U7A U8C G9A U11G C12G C13U

Aptazyme ON/OFF ratio, 1.42:
U7A U8C G9A U10G U11G C12G C13A

Aptazyme ON/OFF ratio, 1.05:
U7A U8C G9C U10C U11C C13G
U7A U8C G9A U10C U11C C12U C13A
U7A U8C G9C U10G U11C C12A C13A
U7A U8C G9C U10A U11C C12U C13A
U7A U8C G9C U10A U11A C12G C13A
U7A U8C G9C U10C U11C C12A
U7A U8C G9C U10G C12G C13A
U7A U8C G9A U10G U11A C13G

Aptazyme ON/OFF ratio, 1.06:
U7A U8C G9C U10A C13U
U7A U8C G9C C12U
U7A U8C G9A U11C C13A
U7A U8C G9C U10A U11A C13G
U7A U8C G9C U10G U11A C12A C13U
U7A U8C G9A U10C U11C C12G C13A
U7A U8C G9A U10C U11C C12G C13U
U7A U8C G9C U10C C13U
U7A U8C G9C U10C C13A
U7A U8C G9C U10G U11G
U7A U8C G9C U10C U11G C12U
U7A U8C G9C C12U C13G

Aptazyme ON/OFF ratio, 1.3:
U7A U8C G9A U10G U11A C12G C13U

Aptazyme ON/OFF ratio, 1.31:
U7A U8C G9A U10G C12G C13U
U7A U8C G9A U11G C12G C13G

Aptazyme ON/OFF ratio, 1.12:
U7A U8C G9C C12A
U7A U8C G9A U10G U11G C12G C13U
U7A U8C G9C U10C C12G C13G
U7A U8C G9C U10G U11C C12G C13U
U7A U8C G9C U10C U11G C12G C13A
U7A U8C G9C U10A U11C C13U

Aptazyme ON/OFF ratio, 0.999:
U7A U8C G9C U10C C12A C13U

Aptazyme ON/OFF ratio, 0.94:
U7A U8C G9C U10C U11C C12U

Aptazyme ON/OFF ratio, 1.18:
U7A U8C G9C U10G U11C C12G C13A
U7A U8C G9C U10G U11C C12G C13G
U7A U8C G9A U10G U11C C12G C13U
U7A U8C G9C U10C U11G C12A C13A
U7A U8C G9A U10G C12U C13G
U7A U8C G9A U10G U11C C12A C13A

Aptazyme ON/OFF ratio, 1.02:
U7A U8C G9C U10C U11C C12U C13G
U7A U8C G9C U10C U11C C12U C13A

Aptazyme ON/OFF ratio, 1.33:
U7A U8C G9A U10C U11G C13A
U7A U8C G9A U10G U11G C12U C13G
U7A U8C G9C U10G U11C C13G

Aptazyme ON/OFF ratio, 1.07:
U7A U8C G9C U10A U11A C12U
U7A U8C G9C U10A C13G
U7A U8C G9C U10C U11G C13A
U7A U8C G9C U10C U11A C13A
U7A U8C G9C U10A U11A C13A
U7A U8C G9A U10G U11A C12G C13G
U7A U8C G9A U10C U11C C12G C13G
U7A U8C G9C U10C C13G
U7A U8C G9C U10A U11A C12G C13U
U7A U8C G9A U10G U11G C12U C13U
U7A U8C G9C U10C U11G C12A C13G

Aptazyme ON/OFF ratio, 1.16:
U7A U8C G9C U10C U11G C13G
U7A U8C G9A U10G U11C C12U C13U
U7A U8C G9A U10G U11C C12U C13A
U7A U8C G9C U10G U11A C12A C13G
U7A U8C G9C U10A U11C C12A C13G

Aptazyme ON/OFF ratio, 0.981:
U7A U8C G9C U10C U11C C13U

Aptazyme ON/OFF ratio, 1.14:
U7A U8C G9C U10A U11G C12U C13U
U7A U8C G9C U10A U11G C12U C13G
U7A U8C G9C U10A C12G C13G
U7A U8C G9C U10A U11C C12A C13U
U7A U8C G9A U11C C12U
U7A U8C G9C C12U C13U
U7A U8C G9A U10G U11A C12U C13G

Aptazyme ON/OFF ratio, 1.41:
U7A U8C G9C U10A U11C C13A
